Reference: the supplement of paper PMC5998384

How the values were obtained:
HeLa Kyoto [1] = assay: solubility in G1/S (NP-40 vs SDS abundance) (log2 ratio); higher = more soluble; conditions: cell cycle stage: G1/S
HeLa Kyoto [2] = assay: solubility change mitosis vs G1/S (difference of NP-40 vs SDS log2 ratios) (log2 ratio difference); higher = more soluble in mitosis
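Wherever solubility change mitosis vs G1/S (difference of NP-40 vs SDS log2 ratios) is given: synchronized HeLa Kyoto cells (double thymidine block for G1/S, nocodazole release for mitosis), protein amounts in NP-40 versus SDS lysates quantified by mass spectrometry, three biological replicates.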
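Wherever solubility in G1/S (NP-40 vs SDS abundance) is given: HeLa Kyoto cells arrested at G1/S by double thymidine block, proteins quantified by TMT10plex mass spectrometry in mild NP-40 versus SDS extracts, three biological replicates.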

Sequence of UBE2D1 (chain, as listed by the source): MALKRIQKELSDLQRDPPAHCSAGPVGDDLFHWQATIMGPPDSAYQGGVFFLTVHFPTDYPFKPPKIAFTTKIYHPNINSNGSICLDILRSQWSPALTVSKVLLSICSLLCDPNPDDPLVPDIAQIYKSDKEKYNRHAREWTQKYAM

Row | Substance | solubility in G1/S (log2) (HeLa Kyoto [1]) | solubility change mitosis (log2) (HeLa Kyoto [2])
1 | MTTRQATKDPLLRGVSPTPSKIPVRSQKRTPFPTVTSCAVDQENQDPRRWVQKPPLNIQRPLVDSAGPRPKARHQAETSQRLVGISQPRNPLEELRPSPRGQNVGPGPPAQTEAPGTIEFVADPAALATILSGEGVKSCHLGRQPSLAKRVLVRGSQGGTTQRVQGVRASAYLAPRTPTHRLDPARASCFSRLEGPGPRGRTLCPQRLQALISPSGPSFHPSTRPSFQELRRETAGSSRTSVSQASGLLLETPVQPAFSLPKGEREVVTHSDEGGVASLGLAQRVPLRENREMSHTRDSHDSHLMPSPAPVAQPLPGHVVPCPSPFGRAQRVPSPGPPTLTSYSVLRRLTVQPKTRFTPMPSTPRVQQAQWLRGVSPQSCSEDPALPWEQVAVRLFDQESCIRSLEGSGKPPVATPSGPHSNRTPSLQEVKIQRIGILQQLLRQEVEGLVGGQCVPLNGGSSLDMVELQPLLTEISRTLNATEHNSGTSHLPGLLKHSGLPKPCLPEECGEPQPCPPAEPGPPEAFCRSEPEIPEPSLQEQLEVPEPYPPAEPRPLESCCRSEPEIPESSRQEQLEVPEPCPPAEPRPLESYCRIEPEIPESSRQEQLEVPEPCPPAEPGPLQPSTQGQSGPPGPCPRVELGASEPCTLEHRSLESSLPPCCSQWAPATTSLIFSSQHPLCASPPICSLQSLRPPAGQAGLSNLAPRTLALRERLKSCLTAIHCFHEARLDDECAFYTSRAPPSGPTRVCTNPVATLLEWQDALCFIPVGSAAPQGSP [TROAP] | 0.0401 | 0.651
2 | MAFGKSHRDPYATSVGHLIEKATFAGVQTEDWGQFMHICDIINTTQDGPKDAVKALKKRISKNYNHKEIQLTLSLIDMCVQNCGPSFQSLIVKKEFVKENLVKLLNPRYNLPLDIQNRILNFIKTWSQGFPGGVDVSEVKEVYLDLVKKGVQFPPSEAEAETARQETAQISSNPPTSVPTAPALSSVIAPKNSTVTLVPEQIGKLHSELDMVKMNVRVMSAILMENTPGSENHEDIELLQKLYKTGREMQERIMDLLVVVENEDVTVELIQVNEDLNNAILGYERFTRNQQRILEQNKNQKEATNTTSEPSAPSQDLLDLSPSPRMPRATLGELNTMNNQLSGLNFSLPSSDVTNNLKPSLHPQMNLLALENTEIPPFAQRTSQNLTSSHAYDNFLEHSNSVFLQPVSLQTIAAAPSNQSLPPLPSNHPAMTKSDLQPPNYYEVMEFDPLAPAVTTEAIYEEIDAHQHKGAQNDGD [TOM1L1] | 0.297 | -0.0535
3 | MAAPSLLNWRRVSSFTGPVPRARHGHRAVAIRELMIIFGGGNEGIADELHVYNTATNQWFLPAVRGDIPPGCAAHGFVCDGTRILVFGGMVEYGRYSNELYELQASRWLWKKVKPHPPPSGLPPCPRLGHSFSLYGNKCYLFGGLANESEDSNNNVPRYLNDFYELELQHGSGVVGWSIPVTKGVVPSPRESHTAVIYCKKDSGSPKMYVFGGMCGARLDDLWQLDLETMSWSKPETKGTVPLPRSLHTASVIGNKMYIFGGWVPHKGENTETSPHDCEWRCTSSFSYLNLDTTEWTTLVSDSQEDKKNSRPRPRAGHCAVAIGTRLYFWSGRDGYKKALNSQVCCKDLWYLDTEKPPAPSQVQLIKATTNSFHVKWDEVSTVEGYLLQLSTDLPYQAASSDSSAAPNMQGVRMDPHRQGSNNIVPNSINDTINSTKTEQPATKETSMKNKPDFKALTDSNAILYPSLASNASNHNSHVVDMLRKNEGPHTSANVGVLSSCLDVRTVIPETSVSSTVSSTQTMVTQQTIKTESSSTNGAVVKDETSLTTFSTKSEVDETYALPATKISRVETHATATPFSKETPSNPVATVKAGERQWCDVGIFKNNTALVSQFYLLPKGKQSISKVGNADVPDYSLLKKQDLVPGTGYRFRVAAINGCGIGPFSKISEFKTCIPGFPGAPSAVRISKNVEGIHLSWEPPTSPSGNILEYSAYLAIRTAQIQDNPSQLVFMRIYCGLKTSCIVTAGQLANAHIDYTSRPAIVFRISAKNEKGYGPATQVRWLQGNNKKAPLN [HCFC2] | -0.228 | -0.0821
4 | MASPEPRRGGDGAAQAARKTRVEANSPLPKNSGSLNEAEALNPEVTLSSEGSLNLEDILYLEDTGDLDETLYVQETEKAEEALYIEEAMQPDEALHVEEPGNPEETVCVEETTEPDRIQFVEGPVEPGKPTSPEHVVYEGETVTRAEKSNPEESLRAEQSPSMEENLSIEDLELLEGRFQQCVQAVAQLEEERDQLIHELVLLREPALQEVQQVHQDILAAYKLHAQAELERDGLREEIRLVKQKLFKVTKECVAYQYQLECRQQDVAQFADFREVLTTRATQLSEELAQLRDAYQKQKEQLRQQLEAPPSQRDGHFLQESRRLSAQFENLMAESRQDLEEEYEPQFLRLLERKEAGTKALQRTQAEIQEMKEALRPLQAEARQLRLQNRNLEDQIALVRQKRDEEVQQYREQLEEMEERQRQLRNGVQLQQQKNKEMEQLRLSLAEELSTYKAMLLPKSLEQADAPTSQAGGMETQSQGAV [SYNC] | 0.502 | 0.0968
5 | UBE2D1 | 0.473 | -0.0476
6 | MSTAMNFGTKSFQPRPPDKGSFPLDHLGECKSFKEKFMKCLHNNNFENALCRKESKEYLECRMERKLMLQEPLEKLGFGDLTSGKSEAKK [COX19] | 0.00408 | 0.143
7 | MALVRALVCCLLTAWHCRSGLGLPVAPAGGRNPPPAIGQFWHVTDLHLDPTYHITDDHTKVCASSKGANASNPGPFGDVLCDSPYQLILSAFDFIKNSGQEASFMIWTGDSPPHVPVPELSTDTVINVITNMTTTIQSLFPNLQVFPALGNHDYWPQDQLPVVTSKVYNAVANLWKPWLDEEAISTLRKGGFYSQKVTTNPNLRIISLNTNLYYGPNIMTLNKTDPANQFEWLESTLNNSQQNKEKVYIIAHVPVGYLPSSQNITAMREYYNEKLIDIFQKYSDVIAGQFYGHTHRDSIMVLSDKKGSPVNSLFVAPAVTPVKSVLEKQTNNPGIRLFQYDPRDYKLLDMLQYYLNLTEANLKGESIWKLEYILTQTYDIEDLQPESLYGLAKQFTILDSKQFIKYYNYFFVSYDSSVTCDKTCKAFQICAIMNLDNISYADCLKQLYIKHNY [SMPDL3A] | 0.322 | 0.18
8 | MNPLTKVKLINELNEREVQLGVADKVSWHSEYKDSAWIFLGGLPYELTEGDIICVFSQYGEIVNINLVRDKKTGKSKGFCFLCYEDQRSTILAVDNFNGIKIKGRTIRVDHVSNYRAPKDSEEIDDVTRQLQEKGCGARTPSPSLSESSEDEKPTKKHKKDKKEKKKKKKEKEKADREVQAEQPSSSSPRRKTVKEKDDTGPKKHSSKNSERAQKSEPREGQKLPKSRTAYSGGAEDLERELKKEKPKHEHKSSSRREAREEKTRIRDRGRSSDAHSSWYNGRSEGRSYRSRSRSRDKSHRHKRARRSRERESSNPSDRWRH [RBMX2] | -1.17 | 0.59
9 | MTSKGPEEEHPSVTLFRQYLRIRTVQPKPDYGAAVAFFEETARQLGLGCQKVEVAPGYVVTVLTWPGTNPTLSSILLNSHTDVVPVFKEHWSHDPFEAFKDSEGYIYARGAQDMKCVSIQYLEAVRRLKVEGHRFPRTIHMTFVPDEEVGGHQGMELFVQRPEFHALRAGFALDEGIANPTDAFTVFYSERSPWWVRVTSTGRPGHASRFMEDTAAEKLHKVVNSILAFREKEWQRLQSNPHLKEGSVTSVNLTKLEGGVAYNVIPATMSASFDFRVAPDVDFKAFEEQLQSWCQAAGEGVTLEFAQKWMHPQVTPTDDSNPWWAAFSRVCKDMNLTLEPEIMPAATDNRYIRAVGVPALGFSPMNRTPVLLHDHDERLHEAVFLRGVDIYTRLLPALASVPALPSDS [ACY1] | 0.288 | -0.0632
10 | MPAPAATYERVVYKNPSEYHYMKVCLEFQDCGVGLNAAQFKQLLISAVKDLFGEVDAALPLDILTYEEKTLSAILRICSSGLVKLWSSLTLLGSYKGKKCAFRVIQVSPFLLALSGNSRELVLD [RPP14] | -0.294 | 0.0872
